Assay results reported in patent publication US20190010233A1 (JIANGSU HYAMAB PHARMACEUTICAL, published 2019).
Like-named read-outs stand apart in the source and are kept apart here.

How the values were obtained:
[1] = biological target: T1, human PD-L1^ECD-hFc protein (human, UniProt Q9NZQ7 19-239, biotinylated in the PD-1 binding ELISA (Table 3) and in the Octet assay (Table 12)); test: ELISA, 0.003 nM mAb
T1 construct: The plain and the biotinylated protein are kept as one molecule; also called PD-L1-hFc; Immunogen A; not shown: human IgG Fc fragment (hFc)
T1 sequence (Q9NZQ7 19-239): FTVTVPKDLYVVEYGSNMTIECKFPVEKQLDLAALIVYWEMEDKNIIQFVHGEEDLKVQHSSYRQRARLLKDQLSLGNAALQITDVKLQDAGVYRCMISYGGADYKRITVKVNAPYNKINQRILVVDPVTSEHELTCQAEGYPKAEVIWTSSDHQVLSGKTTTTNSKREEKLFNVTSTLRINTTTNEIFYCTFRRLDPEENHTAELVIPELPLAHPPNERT

[2] = biological target: T2, full length human PD-L1 on cells (human, UniProt Q9NZQ7 19-290); test: cell-based or functional assay
T2 sequence (Q9NZQ7 19-290 limits assumed): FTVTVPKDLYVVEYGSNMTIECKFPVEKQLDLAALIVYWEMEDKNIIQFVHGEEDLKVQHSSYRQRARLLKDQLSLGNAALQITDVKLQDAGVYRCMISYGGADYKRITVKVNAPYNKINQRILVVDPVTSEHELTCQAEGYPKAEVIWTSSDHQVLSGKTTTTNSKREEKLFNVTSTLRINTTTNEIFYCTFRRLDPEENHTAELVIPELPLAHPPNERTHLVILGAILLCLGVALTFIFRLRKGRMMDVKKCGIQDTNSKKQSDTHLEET

[3] = biological target: T1, human PD-L1^ECD-hFc protein; test: ELISA, 0.0003 nM mAb
[4] = biological target: T3, cyno PD-L1^ECD-hFc protein (cyno, UniProt G7PSE7 19-239); test: ELISA, 30 nM mAb
T3 construct: also called Cyno Monkey PD-L1^ECD-hFc
T3 sequence (G7PSE7 entry or part of it limits assumed): as the sequence (Q9NZQ7 19-239) above, with A33T, A34S, S62N, R68Q, Q82R, F173L, T185A, T192I, H215L counted along it

[5] = biological target: T1, human PD-L1^ECD-hFc protein; test: ELISA, 0.3 nM mAb
[6] = biological target: T3, cyno PD-L1^ECD-hFc protein; test: ELISA, 0.00003 nM mAb
[7] = biological target: T1, human PD-L1^ECD-hFc protein; test: ELISA, 30 nM mAb
[8] = biological target: T3, cyno PD-L1^ECD-hFc protein; test: ELISA, 3 nM mAb
[9] = biological target: T1, human PD-L1^ECD-hFc protein; test: ELISA receptor-ligand blocking assay: PD-L1 protein coated, fully human antibody titrated, blocked ligand PD-1, inhibition rate (%)
[10] = biological target: T1, human PD-L1^ECD-hFc protein; test: ELISA, 3 nM mAb
[11] = biological target: T1, human PD-L1^ECD-hFc protein; test: ELISA, 0.00003 nM mAb
[12] = biological target: T3, cyno PD-L1^ECD-hFc protein; test: ELISA, 0.003 nM mAb
[13] = biological target: T3, cyno PD-L1^ECD-hFc protein; test: ELISA, 0.0003 nM mAb
[14] = biological target: T1, human PD-L1^ECD-hFc protein; test: ELISA, 0.03 nM mAb
[15] = biological target: T1, human PD-L1^ECD-hFc protein; test: ELISA receptor-ligand blocking assay: PD-L1 protein coated, fully human antibody titrated, blocked ligand B7.1, inhibition rate (%)
[16] = biological target: T2, full length human PD-L1 on cells; test: cell-based or functional assay; remark: listed apart in the source
[17] = biological target: T3, cyno PD-L1^ECD-hFc protein; test: ELISA, 0.03 nM mAb
[18] = biological target: T2, full length human PD-L1 on cells; test: cell-based or functional assay; remark: listed apart in the source
[19] = biological target: T3, cyno PD-L1^ECD-hFc protein; test: ELISA, 0.3 nM mAb
[20] = biological target: T2, full length human PD-L1 on cells; test: cell-based or functional assay; remark: listed apart in the source
[21] = biological target: T2, full length human PD-L1 on cells; test: cell-based or functional assay; remark: listed apart in the source

| Binder | OD450 nm [1] | OD450 nm [3] | OD450 nm [4] | OD450 nm [5] | OD450 nm [6] | OD450 nm [7] | OD450 nm [8] | IC50 (read off the curve) [9] | OD450 nm [10] | OD450 nm [11] | OD450 nm [12] | OD450 nm [13] | OD450 nm [14] | IC50 (read off the curve) [15] | IFN-γ (pg/mL), T cell stimulation assay, 0.001 µg/mL mAb [16] | IFN-γ (pg/mL), T cell stimulation assay, 0.01 µg/mL mAb [16] | IFN-γ (pg/mL), T cell stimulation assay, 0.1 µg/mL mAb [16] | IFN-γ (pg/mL), T cell stimulation assay, 1 µg/mL mAb [16] | OD450 nm [17] | OD450 nm [19] | also measured |
| --- | --- | --- | --- | --- | --- | --- | --- | --- | --- | --- | --- | --- | --- | --- | --- | --- | --- | --- | --- | --- | --- |
| fully human anti-PD-L1 antibody 73G11B3 (antibody, human IgG4 S228P, kappa, V domains shown, also called 73G11B3 (fully human)) VH: EVQLVESGGGLVQPGGSLRLSCVVSGFTFSSYWMSWVRQTPGKGLEWVANIKQDGSEKYYVDSVKGRLTISRDNAKNSLYLQMNSLRAEDTAVYYCVRDRAVPGTGALDIWGQGTMVTVSS VL: not shown | 0.403 | 0.254 | 2.6 | 2.48 | 0.308 | 2.67 | 2.65 | ~1 nM | 2.72 | 0.256 | 0.358 | 0.283 | 0.855 | ~0.9 nM | 6780 pg/mL | 10900 pg/mL | 13100 pg/mL | 13500 pg/mL | 1 | 2.52 | IL-2 (pg/mL), MLR, 0.001 µg/mL mAb [2]: 215 pg/mL; IL-2 (pg/mL), MLR, 0.01 µg/mL mAb [2]: 274 pg/mL; IL-2 (pg/mL), MLR, 0.1 µg/mL mAb [2]: 654 pg/mL; IL-2 (pg/mL), MLR, 1 µg/mL mAb [2]: 729 pg/mL; IL-2 (pg/mL), MLR, 10 µg/mL mAb [2]: 601 pg/mL; IFN-γ (pg/mL), MLR, 0.001 µg/mL mAb [18]: 9790 pg/mL; IFN-γ (pg/mL), MLR, 0.01 µg/mL mAb [18]: 10700 pg/mL; IFN-γ (pg/mL), MLR, 0.1 µg/mL mAb [18]: 21700 pg/mL; IFN-γ (pg/mL), MLR, 1 µg/mL mAb [18]: 21700 pg/mL; IFN-γ (pg/mL), MLR, 10 µg/mL mAb [18]: 16900 pg/mL; IFN-γ (pg/mL), T cell stimulation assay, 0.001 µg/mL mAb [20]: 5120 pg/mL; IFN-γ (pg/mL), T cell stimulation assay, 0.01 µg/mL mAb [20]: 6340 pg/mL; IFN-γ (pg/mL), T cell stimulation assay, 0.1 µg/mL mAb [20]: 9360 pg/mL; IFN-γ (pg/mL), T cell stimulation assay, 1 µg/mL mAb [20]: 8790 pg/mL; IFN-γ (pg/mL), T cell stimulation assay, 10 µg/mL mAb [20]: 13100 pg/mL |
| fully human anti-PD-L1 antibody 127D2F3 (antibody, human IgG4 S228P, kappa, V domains shown, also called 127D2F3 (fully human)) VH: EVQLVESGGGLVQPGGSLRLSCVASGFTFSSYWMSWVRQAPGKGLEWVANIKQDGSEKYYVDSVKGRLTISRDNAKNSLYLQMKSLRAEDTAVYYCARDPIYSSYFDYWGQGILVTVSS VL: DIQMTQSPSSLSASVGDRVTITCRASQSISNYLNWYQQKPGKAPKLLIYAASSLQSGVPSRFSGSGSGTDFTLTISSLQPEDFAAYYCQQSYGIPFTFGPGTKVDIKR | 0.329 | 0.264 | 2.59 | 2.48 | 0.297 | 2.59 | 2.6 | ~2 nM | 2.68 | 0.281 | 0.332 | 0.28 | 0.852 | ~1 nM | 5090 pg/mL | 11200 pg/mL | 9340 pg/mL | 14100 pg/mL | 0.889 | 2.49 | – |
| fully human anti-PD-L1 antibody 192D9E7 (antibody, human IgG4 S228P, kappa, V domains shown, also called 192D9E7 (fully human); 192D9F7) VH: EVQLVESGGGLVQPGGSLRLSCAASGFTFSSYWMSWVRQAPGKGLEWVADIKQDGSEKYYVDSVKGRFTISRDNAKNSLYLQMNSLRAEDTAVYYCTRDKPHWGGVMDAWGQGTSVTVSS VL: not shown | 0.322 | 0.285 | 2.54 | 2.52 | 0.324 | 2.59 | 2.66 | ~1 nM | 2.67 | 0.287 | 0.376 | 0.348 | 0.786 | ~0.8 nM | 6150 pg/mL | 13100 pg/mL | 11500 pg/mL | 15200 pg/mL | 0.953 | 2.55 | IFN-γ (pg/mL), MLR, 0.001 µg/mL mAb [21]: 592 pg/mL; IFN-γ (pg/mL), MLR, 0.01 µg/mL mAb [21]: 915 pg/mL; IFN-γ (pg/mL), MLR, 0.1 µg/mL mAb [21]: 1870 pg/mL; IFN-γ (pg/mL), MLR, 1 µg/mL mAb [21]: 2760 pg/mL; IFN-γ (pg/mL), MLR, 10 µg/mL mAb [21]: 2270 pg/mL; IL-2 (pg/mL), MLR, 0.001 µg/mL mAb [2]: 210 pg/mL; IL-2 (pg/mL), MLR, 0.01 µg/mL mAb [2]: 341 pg/mL; IL-2 (pg/mL), MLR, 0.1 µg/mL mAb [2]: 713 pg/mL; IL-2 (pg/mL), MLR, 1 µg/mL mAb [2]: 721 pg/mL; IL-2 (pg/mL), MLR, 10 µg/mL mAb [2]: 770 pg/mL; IFN-γ (pg/mL), MLR, 0.001 µg/mL mAb [18]: 9030 pg/mL; IFN-γ (pg/mL), MLR, 0.01 µg/mL mAb [18]: 11200 pg/mL; IFN-γ (pg/mL), MLR, 0.1 µg/mL mAb [18]: 19600 pg/mL; IFN-γ (pg/mL), MLR, 1 µg/mL mAb [18]: 22900 pg/mL; IFN-γ (pg/mL), MLR, 10 µg/mL mAb [18]: 15500 pg/mL |
